Entries after “also recorded” stand apart in the source; their conditions may differ.
Key:
[1] = system: autologous PBMC pulsed with HPV-16E6 or HPV-18E6 peptides; test: 51Cr release lysis of peptide-pulsed autologous PBMC by lymphocytes stimulated in vitro with peptide; assay type: cell-based, human; settings: lymphocytes of an HLA-A2 patient, peptide at 10 μm for 1-3 weeks, FIG. 2
Procedure: To determine if lymphocytes stimulated in vitro with either the HPV-18E6 peptide (SEQ ID NO. 1) or the HPV-16E6 peptide (SEQ ID NO. 10) would recognize and lyse peripheral blood mononuclear cells (PBMCs) pulsed with these peptides, the following experiment was performed. Lymphocytes isolated from a patient known to carry and express the HLA-A2 allele were stimulated in vitro (IVS) with either the HPV-18E6 peptide (SEQ ID NO. 1) or the HPV-16E6 peptide (SEQ ID NO. 10) at a 10 μm concentration for 1-3 weeks. Autologous PBMC target cells were radiolabeled with ^51Cr and pulsed with either the HPV-18E6 peptide (SEQ ID NO. 1) or the HPV-16E6 peptide (SEQ ID NO. 10). Each of the IVS lymphocyte populations were then mixed with each of the pulsed and labeled PBMC target cells and specific lysis was measured. Lymphocytes IVS with either the HPV-18E6 peptide (SEQ ID NO. 1) or the HPV-16E6 peptide (SEQ ID NO. 10) were able to lyse PBMCs which were pulsed with either the HPV-18E6 peptide (SEQ ID NO. 1) or the HPV-16E6 peptide (SEQ ID NO. 10) and had either the HPV-18E6 peptide (SEQ ID NO. 1) or the HPV-16E6 (SEQ ID NO. 10) peptide on their cell surface.
T cell cytotoxicity is measured by the standard ^51Cr-release assay. Briefly, target cells are radiolabeled with Na2 ^51CrO4. The patient's PBMC (which have been previously stimulated with an HPV peptide of Example 1 at 10 μm concentration for 1 to 3 weeks) are added to the labeled target cells in the presence or absence of the peptide. Cell lysis is determined by the specific release of ^51Cr (specific lysis). Target cells are autologous B-LCL or T2 cells pulsed with the peptide. If there is a detectable pre-immunization specific lysis, a 2.0 fold increase in the lytic units will be considered a positive response. If there is no detectable pre-immunization specific lysis, a post-immunization specific lysis of […] 10% above the controls will be considered a positive response.

[2] = molecular target: T1, HLA-A2 molecule (Homo sapiens, UniProt P04439, D140Y/D185E/D98H/E176V/E277Q/G131W/G231S/I119V/I121R/I166T/I218V/L300P/L318F/N151K/N90K/P208A/P217A/Q86G/Q94H/R138H/R169H/T345S); test: Binding of fluorescently labeled peptide to T2A2 cells; settings: for affinity for HLA-A2 relative to the other peptides tested / binding to the HLA-A2 molecules on the surface of T2A2 cells: FIG. 1; for binding to the HLA-A2 molecules on the surface of T2A2 cells: fluorescently labeled peptide
T1 construct: endogenous in cells; host or cells: T2A2 cells

KLPQLCTEL [homologous peptide from the HPV-16E6 protein (amino acids 13-21), reference compound]
specific lysis of autologous PBMC pulsed with either HPV-18E6 or HPV-16E6 peptide by lymphocytes stimulated in vitro with the peptide ([1]; listed as HPV-16E6 peptide): able to lyse
specific lysis of autologous PBMC pulsed with either HPV-18E6 or HPV-16E6 peptide by lymphocytes stimulated in vitro with the peptide ([1]; listed as HPV-16E6 peptides): lyse

KLPDLCTEL
specific lysis of autologous PBMC pulsed with either HPV-18E6 or HPV-16E6 peptide by lymphocytes stimulated in vitro with the peptide ([1]; listed as HPV-18E6 peptide): able to lyse; also recorded: able to elicit an immune response
specific lysis of autologous PBMC pulsed with either HPV-18E6 or HPV-16E6 peptide by lymphocytes stimulated in vitro with the peptide ([1]; listed as HPV-18E6 peptides): specifically lyse
fold higher affinity for the HLA-A2 molecule than the homologous HPV-16E6 peptide KLPQLCTEL ([2]; T2A2 cells): approximately 100 fold
affinity for HLA-A2 relative to the other peptides tested ([2]; T2A2 cells): higher affinity than did either the FMP peptide or the homologous peptide from the HPV-16E6 protein
affinity for HLA-A2 relative to the other peptides tested ([2]; T2A2 cells, listed as HPV-18E6 (13-21) peptide): higher than the homologous HPV-16E6 peptide
binding to the HLA-A2 molecules on the surface of T2A2 cells [2]: bound
binding to the HLA-A2 molecules on the surface of T2A2 cells ([2]; listed as HPV-18E6 (13-21) peptide): high affinity
binding to the HLA-A2 molecules on the surface of T2A2 cells ([2]; listed as HPV-18E6 peptide): able to bind

Source: patent publication US7507538B2, “Human papilloma virus immunoreactive peptides” (priority 2001, dated 2009)
